Experimental data published in article PMC9604360 (2022).

Molecular target: T1, Ribonuclease A (scrambled, oxidized) (Bos taurus, UniProt P61823)
T1 chain: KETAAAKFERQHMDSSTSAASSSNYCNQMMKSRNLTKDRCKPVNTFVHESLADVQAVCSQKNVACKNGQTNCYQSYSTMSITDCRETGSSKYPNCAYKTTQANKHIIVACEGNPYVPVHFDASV
Experiment: intrinsic fluorescence quenching

Kd: ~300 nM
B1: MET 25-932 (protein)
chain: ECKEALAKSEMNVNMKYQLPNFTAETPIQNVILHEHHIFLGATNYIYVLNEEDLQKVAEYKTGPVLEHPDCFPCQDCSSKANLSGGVWKDNINMALVVDTYYDDQLISCGSVNRGTCQRHVFPHNHTADIQSEVHCIFSPQIEEPSQCPDCVVSALGAKVLSSVKDRFINFFVGNTINSSYFPDHPLHSISVRRLKETKDGFMFLTDQSYIDVLPEFRDSYPIKYVHAFESNNFIYFLTVQRETLDAQTFHTRIIRFCSINSGLHSYMEMPLECILTEKRKKRSTKKEVFNILQAAYVSKPGAQLARQIGASLNDDILFGVFAQSKPDSAEPMDRSAMCAFPIKYVNDFFNKIVNKNNVRCLQHFYGPNHEHCFNRTLLRNSSGCEARRDEYRTEFTTALQRVDLFMGQFSEVLLTSISTFIKGDLTIANLGTSEGRFMQVVVSRSGPSTPHVNFLLDSHPVSPEVIVEHTLNQNGYTLVITGKKITKIPLNGLGCRHFQSCSQCLSAPPFVQCGWCHDKCVRSEECLSGTWTQQICLPAIYKVFPNSAPLEGGTRLTICGWDFGFRRNNKFDLKKTRVLLGNESCTLTLSESTMNTLKCTVGPAMNKHFNMSIIISNGHGTTQYSTFSYVDPVITSISPKYGPMAGGTLLTLTGNYLNSGNSRHISIGGKTCTLKSVSNSILECYTPAQTISTEFAVKLKIDLANRETSIFSYREDPIVYEIHPTKSFISGGSTITGVGKNLNSVSVPRMVINVHEAGRNFTVACQHRSNSEIICCTTPSLQQLNLQLPLKTKAFFMLDGILSKYFDLIYVHNPVFKPFEKPVMISMGNENVLEIKGNDIDPEAVKGEVLKVGNKSCENIHLHSEAVLCTVPNDLLKLNSELNIEWKQAISSTVLGKVIVQPDQNFT
modifications: scrambled disulfides of RNase A
